Measurements published in US20170165337A1 (IMMATICS BIOTECHNOLOGIES, published 2017).

Molecular target: T1, HLA-A*02:01 (human)
T1 construct: MHC class I monomer of the UV-ligand exchange assay; also called peptide-receptive MHC molecules; MHC class I
Experiment: UV peptide-exchange ELISA
Source text: Candidate peptides for T cell based therapies according to the present invention were further tested for their MHC binding capacity (affinity). The individual peptide-MHC complexes were produced by UV-ligand exchange, where a UV-sensitive peptide is cleaved upon UV-irradiation, and exchanged with the peptide of interest as analyzed. Only peptide candidates that can effectively bind and stabilize the peptide-receptive MHC molecules prevent dissociation of the MHC complexes. To determine the yield of the exchange reaction, an ELISA was performed based on the detection of the light chain (β2m) of stabilized MHC complexes. The assay was performed as generally described in Rodenko et al. (Rodenko et al., 2006).
96 well MAXISorp plates (NUNC) were coated over night with 2 ug/ml streptavidin in PBS at room temperature, washed 4× and blocked forl h at 37° C. in 2% BSA containing blocking buffer. Refolded HLA-A*02:01/MLA-001 monomers served as standards, covering the range of 15-500 ng/ml. Peptide-MHC monomers of the UV-exchange reaction were diluted 100 fold in blocking buffer. Samples were incubated for 1 h at 37° C., washed four times, incubated with 2 ug/ml HRP conjugated anti-β2m for 1 h at 37° C., washed again and detected with TMB solution that is stopped with […]. Absorption was measured at 450 nm. Candidate peptides that show a high exchange yield (preferably higher than 50%, most preferred higher than 75%) are generally preferred for a generation and production of antibodies or fragments thereof, and/or T cell receptors or fragments thereof, as they show sufficient avidity to the MHC molecules and prevent dissociation of the MHC complexes.

peptide exchange yield [%] | Binder
50 to 75 | VLLGLEMTL
20 to 50 | VMGDIPAAV
50 to 75 | VMQDIVYKL
50 to 75 | YIQEYLTLL
≥ 75 | YLVELSSLL
50 to 75 | VLSHNLYTV
≥ 75 | YQLELHGIEL
50 to 75 | VVMGTVPRL
50 to 75 | VLDDRELLL
50 to 75 | WLAGDVPAA
≥ 75 | YVDDVFLRV
≥ 75 | YLDNVLAEL
50 to 75 | YLTFLPAEV
10 to 20 | YLLLQTYVL
50 to 75 | VLFFNVQEV
≥ 75 | YLGGFALSV

peptide exchange yield [%] | Binder
50 to 75 | VLMPTVYQQGV
≥ 75 | VMDTHLVNI
50 to 75 | TLYDMLASI
20 to 50 | TVIENIHTI
50 to 75 | VLLSVPGPPV
50 to 75 | VMLEMTPEL
≥ 75 | YMFEEVPIVI
≥ 75 | YLLDQSFVM
50 to 75 | VLAEQNIIPSA
50 to 75 | VLLSIPFVSV
50 to 75 | VLAELPIIVV
50 to 75 | YLDLSNNRL
50 to 75 | YIFDGSDGGV
≥ 75 | VMDPTKILI
≥ 75 | YLQEVPILTL
20 to 50 | VMDDQRDLI

The next lines start with the binder.

Binder | peptide exchange yield [%]
QVMEKLAAV | 50 to 75
SVHKGFAFV | 50 to 75
AMEALVVEV | 50 to 75
GLLQINDKIAL | 50 to 75
ILQAELPSL | 50 to 75
ALWELSLKI | 50 to 75
TLDDDLDTV | 20 to 50
ILQERELLPV | 50 to 75
TLDPNQVSL | 20 to 50
IIADLDTTIMFA | 50 to 75
TLLLGLTEV | 50 to 75
ALGEEWKGYVV | 20 to 50
LLKDGPEIGL | 20 to 50
TLTFRVETV | 50 to 75
ALVSTIIMV | 10 to 20
RLQELTEKL | 50 to 75
LLGEFSIKM | 50 to 75
ALVDPGPDFVV | 50 to 75

Binder | peptide exchange yield [%]
ALHRPDVYL | 50 to 75
ALPEILFAKV | 50 to 75
ALDEPPYLTV | 50 to 75
ALWVSQPPEI | 50 to 75
TLDTSKLYV | 50 to 75
TLVPPAALISI | 50 to 75
ALLNLLESA | 50 to 75
ILLKTEGINL | 50 to 75
ALTKTNLQL | 50 to 75
ALPGGAAVAAV | ≥ 75
ALWAGLLTL | 50 to 75
FTVPRVVAV | 50 to 75
GLSQANFTL | 50 to 75
HMQDVRVLL | 50 to 75
ALLSSQLAL | 50 to 75
LIDVKPLGV | 50 to 75
KLLVQDFFL | 50 to 75
